# Reference: IntAct's records for PubMed 31515488
# B1: Hematopoietic lineage cell-specific protein (Homo sapiens), P14317 (parent)
# chain: MWKSVVGHDVSVSVETQGDDWDTDPDFVNDISEKEQRWGAKTIEGSGRTEHINIHQLRNKVSEEHDVLRKKEMESGPKASHGYGGRFGVERDRMDKSAVGHEYVAEVEKHSSQTDAAKGFGGKYGVERDRADKSAVGFDYKGEVEKHTSQKDYSRGFGGRYGVEKDKWDKAALGYDYKGETEKHESQRDYAKGFGGQYGIQKDRVDKSAVGFNEMEAPTTAYKKTTPIEAASSGTRGLKAKFESMAEEKRKREEEEKAQQVARRQQERKAVTKRSPEAPQPVIAMEEPAVPAPLPKKISSEAWPPVGTPPSSESEPVRTSREHPVPLLPIRQTLPEDNEEPPALPPRTLEGLQVEEEPVYEAEPEPEPEPEPEPENDYEDVEEMDRHEQEDEPEGDYEEVLEPEDSSFSSALAGSSGCPAGAGAGAVALGISAVAVYDYQGEGSDELSFDPDDVITDIEMVDEGWWRGRCHGHFGLFPANYVKLLE
# partner: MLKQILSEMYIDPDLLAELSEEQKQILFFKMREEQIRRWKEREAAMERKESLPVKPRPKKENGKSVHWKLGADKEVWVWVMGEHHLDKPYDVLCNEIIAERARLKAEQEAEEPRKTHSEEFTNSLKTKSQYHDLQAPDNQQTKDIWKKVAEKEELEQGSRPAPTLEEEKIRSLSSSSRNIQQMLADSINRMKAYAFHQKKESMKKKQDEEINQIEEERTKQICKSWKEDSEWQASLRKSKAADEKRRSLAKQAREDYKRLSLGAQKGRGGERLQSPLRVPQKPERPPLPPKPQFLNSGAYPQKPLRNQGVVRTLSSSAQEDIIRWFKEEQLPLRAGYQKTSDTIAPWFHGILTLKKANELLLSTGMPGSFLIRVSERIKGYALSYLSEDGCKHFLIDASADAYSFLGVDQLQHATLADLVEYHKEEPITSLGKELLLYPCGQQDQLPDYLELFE
# B2: Retinoic acid receptor RXR-gamma (Homo sapiens), P48443 (parent)
# chain: MYGNYSHFMKFPAGYGGSPGHTGSTSMSPSAALSTGKPMDSHPSYTDTPVSAPRTLSAVGTPLNALGSPYRVITSAMGPPSGALAAPPGINLVAPPSSQLNVVNSVSSSEDIKPLPGLPGIGNMNYPSTSPGSLVKHICAICGDRSSGKHYGVYSCEGCKGFFKRTIRKDLIYTCRDNKDCLIDKRQRNRCQYCRYQKCLVMGMKREAVQEERQRSRERAESEAECATSGHEDMPVERILEAELAVEPKTESYGDMNMENSTNDPVTNICHAADKQLFTLVEWAKRIPHFSDLTLEDQVILLRAGWNELLIASFSHRSVSVQDGILLATGLHVHRSSAHSAGVGSIFDRVLTELVSKMKDMQMDKSELGCLRAIVLFNPDAKGLSNPSEVETLREKVYATLEAYTKQKYPEQPGRFAKLLLRLPALRSIGLKCLEHLFFFKLIGDTPIDTFLMEMLETPLQIT
# partner: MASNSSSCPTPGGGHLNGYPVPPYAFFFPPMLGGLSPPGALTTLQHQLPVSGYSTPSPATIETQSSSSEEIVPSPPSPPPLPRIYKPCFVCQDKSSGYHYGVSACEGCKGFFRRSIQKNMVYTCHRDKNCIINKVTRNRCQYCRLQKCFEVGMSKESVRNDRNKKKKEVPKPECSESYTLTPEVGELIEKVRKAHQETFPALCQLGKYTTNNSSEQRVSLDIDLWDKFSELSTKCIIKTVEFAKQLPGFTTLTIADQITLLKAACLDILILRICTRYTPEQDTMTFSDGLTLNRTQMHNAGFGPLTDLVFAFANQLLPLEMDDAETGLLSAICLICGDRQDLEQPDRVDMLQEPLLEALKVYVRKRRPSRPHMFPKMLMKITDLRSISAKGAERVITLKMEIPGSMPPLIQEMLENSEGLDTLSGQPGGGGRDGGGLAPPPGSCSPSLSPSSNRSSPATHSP
# B3: Inactive peptidyl-prolyl cis-trans isomerase FKBP6 (Homo sapiens), O75344 (parent)
# chain: MGGSALNQGVLEGDDAPGQSLYERLSQRMLDISGDRGVLKDVIREGAGDLVAPDASVLVKYSGYLEHMDRPFDSNYFRKTPRLMKLGEDITLWGMELGLLSMRRGELARFLFKPNYAYGTLGCPPLIPPNTTVLFEIELLDFLDCAESDKFCALSAEQQDQFPLQKVLKVAATEREFGNYLFRQNRFYDAKVRYKRALLLLRRRSAPPEEQHLVEAAKLPVLLNLSFTYLKLDRPTIALCYGEQALIIDQKNAKALFRCGQACLLLTEYQKARDFLVRAQKEQPFNHDINNELKKLASCYRDYVDKEKEMWHRMFAPCGDGSTAGES
# partner: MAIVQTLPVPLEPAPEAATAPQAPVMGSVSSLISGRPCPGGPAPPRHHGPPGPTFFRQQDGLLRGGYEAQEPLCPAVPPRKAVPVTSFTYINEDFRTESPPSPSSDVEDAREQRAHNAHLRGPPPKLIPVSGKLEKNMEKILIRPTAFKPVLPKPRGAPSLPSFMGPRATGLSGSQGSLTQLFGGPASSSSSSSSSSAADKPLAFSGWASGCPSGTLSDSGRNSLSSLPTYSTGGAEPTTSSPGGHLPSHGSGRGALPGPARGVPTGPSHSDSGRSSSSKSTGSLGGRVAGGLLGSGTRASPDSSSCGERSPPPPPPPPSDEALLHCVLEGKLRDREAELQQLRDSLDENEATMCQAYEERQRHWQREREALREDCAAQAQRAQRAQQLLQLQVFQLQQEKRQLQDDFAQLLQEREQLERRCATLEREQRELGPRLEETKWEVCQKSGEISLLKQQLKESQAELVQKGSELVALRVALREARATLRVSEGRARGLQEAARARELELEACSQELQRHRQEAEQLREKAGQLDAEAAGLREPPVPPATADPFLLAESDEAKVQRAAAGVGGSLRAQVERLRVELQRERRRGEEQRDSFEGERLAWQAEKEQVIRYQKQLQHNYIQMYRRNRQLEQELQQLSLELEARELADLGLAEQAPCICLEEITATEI
# B4: Vasculin (Homo sapiens), Q86WP2 (parent)
# chain: MAQHDFAPAWLNFPTPPSSTKSSLNFEKHSENFAWTENRYDVNRRRHNSSDGFDSAIGRPNGGNFGRKEKNGWRTHGRNGTENINHRGGYHGGSSRSRSSIFHAGKSQGLHENNIPDNETGRKEDKRERKQFEAEDFPSLNPEYEREPNHNKSLAAGVWEYPPNPKSRAPRMLVIKKGNTKDLQLSGFPVVGNLPSQPVKNGTGPSVYKGLVPKPAAPPTKPTQWKSQTKENKVGTSFPHESTFGVGNFNAFKSTAKNFSPSTNSVKECNRSNSSSPVDKLNQQPRLTKLTRMRTDKKSEFLKALKRDRVEEEHEDESRAGSEKDDDSFNLHNSNSTHQERDINRNFDENEIPQENGNASVISQQIIRSSTFPQTDVLSSSLEAEHRLLKEMGWQEDSENDETCAPLTEDEMREFQVISEQLQKNGLRKNGILKNGLICDFKFGPWKNSTFKPTTENDDTETSSSDTSDDDDV
# partner: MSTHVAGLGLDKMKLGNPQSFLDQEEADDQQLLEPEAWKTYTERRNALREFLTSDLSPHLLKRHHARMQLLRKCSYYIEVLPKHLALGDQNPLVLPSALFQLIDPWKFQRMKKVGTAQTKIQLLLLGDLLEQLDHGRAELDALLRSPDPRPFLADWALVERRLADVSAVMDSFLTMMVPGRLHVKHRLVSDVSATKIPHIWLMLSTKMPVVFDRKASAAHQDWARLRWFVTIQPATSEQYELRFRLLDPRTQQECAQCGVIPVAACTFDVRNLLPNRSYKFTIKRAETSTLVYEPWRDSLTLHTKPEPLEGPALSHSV
# B5: Ribonuclease P protein subunit p25-like protein (Homo sapiens), Q8N5L8 (parent)
# chain: MEHYRKAGSVELPAPSPMPQLPPDTLEMRVRDGSKIRNLLGLALGRLEGGSARHVVFSGSGRAAGKAVSCAEIVKRRVPGLHQLTKLRFLQTEDSWVPASPDTGLDPLTVRRHVPAVWVLLSRDPLDPNECGYQPPGAPPGLGSMPSSSCGPRSRRRARDTRS
# partner: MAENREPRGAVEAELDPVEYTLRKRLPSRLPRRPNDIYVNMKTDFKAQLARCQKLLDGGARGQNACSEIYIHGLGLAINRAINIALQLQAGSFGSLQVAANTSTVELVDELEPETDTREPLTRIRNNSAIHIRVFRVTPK
# Variants of: B1
# Conditions: with sh24a_human SH2D4A
row,Variant,effect of a mutation on the interaction
1,P218L,with no effect

# Variants of: B2
# Conditions: with rara_human RARA
row,Variant,effect of a mutation on the interaction
1,A86V,with no effect

# Variants of: B3
# Conditions: with lzts2_human LZTS2, Q9BRK4
row,Variant,effect of a mutation on the interaction
1,R175Q,with no effect
2,H287N,with no effect

# Variants of: B4
# Conditions: with fnd11_human FNDC11, Q9BVV2
row,Variant,effect of a mutation on the interaction
1,T223A,with no effect
2,S449R,with no effect

# Variants of: B5
# Conditions: with pop7_human POP7, O75817
row,Variant,effect of a mutation on the interaction
1,D127N,with no effect
